Our source for the abundance fitness values is the Human Domainome abundance scans (Beltran et al. 2025).

B1: Connector enhancer of kinase suppressor of ras 2, residues 9 to 71; numbered along this chain, Q8WXI2 (parent)
chain: SKWSPSQVVDWMKGLDDCLQQYIKNFEREKISGDQLLRITHQELEDLGVSRIGHQELILEAVD

± gives the uncertainty stated by the source.

The variants in this data set derive from B1. Put plainly: abundance fitness (aPCA) (normalised: wild type 0, dead -1); higher = more abundant; growth selection in yeast, the domain comes from the species named. As to conditions: Homo sapiens.
G14S: the abundance fitness is -0.005 ± 0.027.

Consider G14Y, for which the abundance fitness is -1.04 ± 0.11.

For the variant G14K, the abundance fitness is -0.264 ± 0.045.

For G14A, the abundance fitness is -0.41 ± 0.034.

Consider G14R, for which the abundance fitness is -0.3 ± 0.025.

With G14W, the abundance fitness is -0.986 ± 0.1.

Take G14V: the abundance fitness was -0.895 ± 0.053.

Regarding G14M, the abundance fitness is -0.421 ± 0.043.

Consider G14Q, for which the abundance fitness was -0.196 ± 0.047.

On to G14F, for which the abundance fitness is -1.06 ± 0.13.

Consider G14C, for which the abundance fitness is -0.34 ± 0.036.

In the case of G14E, the abundance fitness was -0.225 ± 0.034.

As for G14I, the abundance fitness was -0.922 ± 0.13.

For the variant G14L, the abundance fitness is -0.579 ± 0.031.

For the variant G14H, the abundance fitness is -0.468 ± 0.1.

On to D16S, for which the abundance fitness was -0.402 ± 0.022.

D16W: the abundance fitness is -0.527 ± 0.031.

For D16L, the abundance fitness was -0.702 ± 0.035.

In the case of D16A, the abundance fitness was -0.408 ± 0.034.

Take D16E: the abundance fitness was -0.266 ± 0.044.

For D16Y, the abundance fitness was -0.667 ± 0.035.

Take D16I: the abundance fitness was -0.615 ± 0.038.

On to D16V, for which the abundance fitness was -0.675 ± 0.032.

As for D16R, the abundance fitness was -0.631 ± 0.025.

With D16Q, the abundance fitness is -0.293 ± 0.042.

Turning to D16K, the abundance fitness was -0.632 ± 0.038.

Consider D16G, for which the abundance fitness was -0.466 ± 0.028.

On to D16P, for which the abundance fitness is -0.047 ± 0.026.

Take D16H: the abundance fitness was -0.358 ± 0.033.

With D16F, the abundance fitness was -0.512 ± 0.031.

D16M: the abundance fitness was -0.669 ± 0.056.

D16N: the abundance fitness was -0.311 ± 0.033.

For the variant D16C, the abundance fitness is -0.72 ± 0.041.

Turning to Q7D, the abundance fitness was -0.07 ± 0.048.

For the variant Q7S, the abundance fitness was -0.45 ± 0.033.

With Q7P, the abundance fitness was -0.666 ± 0.057.

Take Q7F: the abundance fitness is -0.713 ± 0.064.

As to Q7G, the abundance fitness was -0.457 ± 0.029.

Q7Y: the abundance fitness is -0.777 ± 0.068.

Take Q7N: the abundance fitness was -0.331 ± 0.049.

For the variant Q7M, the abundance fitness was -0.12 ± 0.034.

For Q7W, the abundance fitness is -0.803 ± 0.051.

On to Q7V, for which the abundance fitness is -0.631 ± 0.032.

For the variant Q7C, the abundance fitness was -0.574 ± 0.042.

On to Q7L, for which the abundance fitness was -0.743 ± 0.033.

With Q7E, the abundance fitness was -0.006 ± 0.033.

Take Q7I: the abundance fitness is -0.748 ± 0.075.

As to Q7K, the abundance fitness was -0.227 ± 0.032.

For the variant Q7H, the abundance fitness was -0.301 ± 0.045.

Consider Q7T, for which the abundance fitness is -0.488 ± 0.035.

In the case of Q7A, the abundance fitness is -0.211 ± 0.031.

Take K2W: the abundance fitness is -0.291 ± 0.079.

K2Y: the abundance fitness was -0.012 ± 0.033.

Turning to K2R, the abundance fitness was -0.325 ± 0.052.

Turning to K2T, the abundance fitness is 0.015 ± 0.03.

Turning to K2S, the abundance fitness is -0.003 ± 0.025.

K2V: the abundance fitness is -0.133 ± 0.034.

Consider V8I, for which the abundance fitness was -0.524 ± 0.038.

Consider V8P, for which the abundance fitness was -0.773 ± 0.052.

Consider V8R, for which the abundance fitness is -0.872 ± 0.06.

With V8S, the abundance fitness was -0.749 ± 0.04.

Consider V8H, for which the abundance fitness is -0.878 ± 0.052.

V8L: the abundance fitness was -0.775 ± 0.044.

As to V8Y, the abundance fitness is -1.01 ± 0.086.

Consider V8Q, for which the abundance fitness is -0.947 ± 0.092.

Turning to V8W, the abundance fitness was -1.05 ± 0.083.

For V8M, the abundance fitness is -0.771 ± 0.058.

Consider V8K, for which the abundance fitness is -0.88 ± 0.064.

V8D: the abundance fitness is -0.783 ± 0.085.

For V8G, the abundance fitness is -0.851 ± 0.049.

As to V8N, the abundance fitness was -0.973 ± 0.069.

V8C: the abundance fitness is -0.716 ± 0.057.

Consider V8F, for which the abundance fitness is -0.861 ± 0.051.

For the variant V8T, the abundance fitness is -0.523 ± 0.033.

For S4I, the abundance fitness is -0.567 ± 0.088.

With S4V, the abundance fitness is -0.496 ± 0.025.

Turning to S4H, the abundance fitness is -0.385 ± 0.067.

For S4Y, the abundance fitness was -0.491 ± 0.068.

Take S4W: the abundance fitness is -0.958 ± 0.075.

Consider S4Q, for which the abundance fitness was -0.676 ± 0.056.

In the case of S4K, the abundance fitness is -0.141 ± 0.043.

For S4M, the abundance fitness is -0.273 ± 0.041.

In the case of S4N, the abundance fitness worked out at 0.001 ± 0.042.

Consider S4F, for which the abundance fitness is -0.656 ± 0.049.

With S4P, the abundance fitness was -0.393 ± 0.057.

As for S4C, the abundance fitness is -0.183 ± 0.047.

For the variant S4A, the abundance fitness was -0.835 ± 0.044.

In the case of S4D, the abundance fitness was -0.027 ± 0.031.

Consider S4T, for which the abundance fitness is -0.053 ± 0.047.

Take S4G: the abundance fitness is -0.128 ± 0.025.

For W11V, the abundance fitness is -0.749 ± 0.038.

Consider W11Y, for which the abundance fitness was -0.425 ± 0.047.

Turning to W11C, the abundance fitness is -0.834 ± 0.072.

Take W11H: the abundance fitness was -0.738 ± 0.049.

For the variant W11S, the abundance fitness was -0.782 ± 0.036.

In the case of W11F, the abundance fitness is -0.333 ± 0.048.

On to W11E, for which the abundance fitness was -0.59 ± 0.06.

For W11R, the abundance fitness is -0.716 ± 0.024.

With W11N, the abundance fitness was -0.674 ± 0.086.

For the variant W11L, the abundance fitness is -0.896 ± 0.041.

For W11I, the abundance fitness was -1 ± 0.11.

For the variant W11M, the abundance fitness is -0.943 ± 0.058.

Turning to W11G, the abundance fitness is -0.675 ± 0.04.

With W11P, the abundance fitness is -0.854 ± 0.066.

For the variant W11D, the abundance fitness is -0.65 ± 0.055.

W11K: the abundance fitness was -0.564 ± 0.046.

For the variant W11A, the abundance fitness was -0.95 ± 0.051.

As to W11Q, the abundance fitness was -0.681 ± 0.054.

V9Y: the abundance fitness is -0.757 ± 0.076.

V9M: the abundance fitness is -0.159 ± 0.038.

As to V9E, the abundance fitness is -0.374 ± 0.036.

Turning to V9W, the abundance fitness is -0.863 ± 0.049.

For the variant V9S, the abundance fitness was -0.207 ± 0.027.

Turning to V9T, the abundance fitness is -0.11 ± 0.035.

As for V9G, the abundance fitness is -0.128 ± 0.031.

Consider V9Q, for which the abundance fitness is -0.217 ± 0.044.

For the variant V9C, the abundance fitness is -0.054 ± 0.039.

Consider V9K, for which the abundance fitness is -0.334 ± 0.044.

As to V9H, the abundance fitness was -0.774 ± 0.051.

Take V9A: the abundance fitness is -0.064 ± 0.028.

Regarding V9I, the abundance fitness was -0.035 ± 0.03.

Turning to V9D, the abundance fitness was -0.66 ± 0.052.

Consider V9R, for which the abundance fitness was -0.268 ± 0.025.

Regarding V9N, the abundance fitness is -0.562 ± 0.061.

As for V9P, the abundance fitness was -0.888 ± 0.073.

On to V9F, for which the abundance fitness is -0.764 ± 0.081.

On to L15S, for which the abundance fitness is -0.539 ± 0.031.

As for L15I, the abundance fitness was -0.446 ± 0.046.

In the case of L15W, the abundance fitness is -0.266 ± 0.04.

L15G: the abundance fitness is -0.675 ± 0.044.

L15H: the abundance fitness was -0.781 ± 0.067.

With L15E, the abundance fitness was -0.371 ± 0.027.

Consider L15C, for which the abundance fitness is -0.552 ± 0.059.

L15Y: the abundance fitness is -0.636 ± 0.067.

For the variant L15A, the abundance fitness was -0.652 ± 0.034.

L15D: the abundance fitness is -0.702 ± 0.05.

L15Q: the abundance fitness was -0.164 ± 0.035.

For the variant L15T, the abundance fitness is -0.427 ± 0.032.

On to L15R, for which the abundance fitness was -0.535 ± 0.037.

For L15K, the abundance fitness was -0.48 ± 0.032.

L15N: the abundance fitness was -0.512 ± 0.051.

Consider L15P, for which the abundance fitness is -0.712 ± 0.043.

For the variant L15V, the abundance fitness is -0.42 ± 0.027.

Take K13C: the abundance fitness was -0.356 ± 0.041.

For the variant K13E, the abundance fitness is -0.352 ± 0.046.

As to K13V, the abundance fitness was -0.391 ± 0.026.

Turning to K13L, the abundance fitness was -0.23 ± 0.024.

Turning to K13M, the abundance fitness was -0.103 ± 0.029.

With K13S, the abundance fitness was -0.179 ± 0.027.

For the variant K13R, the abundance fitness was -0.003 ± 0.028.

Consider K13N, for which the abundance fitness is -0.212 ± 0.055.

On to K13F, for which the abundance fitness is -0.375 ± 0.045.

Take K13T: the abundance fitness is -0.237 ± 0.046.

Regarding K13Y, the abundance fitness was -0.242 ± 0.056.

As for K13P, the abundance fitness is -0.895 ± 0.075.

With K13W, the abundance fitness is -0.339 ± 0.034.

For the variant K13H, the abundance fitness is -0.13 ± 0.065.

K13I: the abundance fitness is -0.422 ± 0.052.

Regarding K13A, the abundance fitness is -0.196 ± 0.03.

For Q21W, the abundance fitness was -0.933 ± 0.062.

For the variant Q21I, the abundance fitness is -0.088 ± 0.043.

Turning to Q21G, the abundance fitness was -0.032 ± 0.03.

As for Q21V, the abundance fitness is -0.072 ± 0.024.

Turning to Q21F, the abundance fitness was -0.539 ± 0.041.

In the case of Q21M, the abundance fitness is -0.102 ± 0.032.

Regarding Q21E, the abundance fitness is -0.076 ± 0.037.

Q21L: the abundance fitness was -0.275 ± 0.025.
